Substrate in the data set: O=C(O)[C@@H](O)[C@H](O)[C@H](O)[C@@H](O)C(=O)O
The data set can be described thus: purified protein. The following applies: dehydration, 20 mM HEPES pH 7.9, 5 mM MgCl2, 1 μM enzyme.

B1: A9CG74 (GalrD-III) (Agrobacterium fabrum str. C58) (protein)
chain: MKIDRMRVFVTRDKDRPRVIVALDTDDGMTGWGECYNHGPDLALPPVLDYLYNFLAGQDPTRVEFLYNLMLQQNRFPPGALGLSAISALDHCLWDLAAKAVGVPVYKLLGGEVRNRIKVYAGVYTAPDAPAARDEFDRLNEGWGFSAFKLSPWRVDIHAHRWGEVVRSSAEYFRTLRETVRADYDIAFDAHAKIFEPSAARQLGNALAPYDPLFYEEPLRPENIEMYGDLKQGLNCTLATGESLYNRNEFLRLLQVKGADIIQPDICVVGGISEMRRIATLAEAHFVSIAPHNPMGPLATAVNVHFCAVQQNFRILEYRLPKGQVYAYGGNDLVKEEDVTRYVVDPYLPRDGYLELRPDRPGWGVEMDEKAMQEDGYVHWQRRVPKRPDGSYAFA
One may read the Km as the concentration of substrate that gives half-maximal velocity. A word on the kcat: it is the number of substrate molecules converted per active site and unit of time at saturation. A word on the kcat/Km: it is the turnover number divided by the Michaelis constant. In the case of B1, the Km was determined as 80 ± 30 µM, the kcat is 0.12 ± 0.05 s⁻¹ and the catalytic efficiency (kcat/Km) is 1500 M⁻¹ s⁻¹.

Values taken from PMC4081050.
